Results: PMC9750858, “Rapid biosensor development using plant hormone receptors as reprogrammable scaffolds” (Nature Biotechnology, 2022)
Where two headings read alike, the source gives them in different places.

What was measured:
[1] = target: T1, PYR1^PIRI (Arabidopsis thaliana, UniProt O49686, A160T/E130G/F159T/K59R/N119S/S122Q/S92M/V174A); assay: Split NanoLuc luciferase complementation in yeast, NLuc^N-PYR1^PIRI/NLuc^C-HAB1; assay type: cell-based
T1 construct: >PYR1-PIRI; expressed in transfected cells; host or cells: Saccharomyces cerevisiae BY4742

[2] = target: T2, PYR1^PIRI / HAB1 (Arabidopsis thaliana, UniProt O49686, A160T/E130G/F159T/K59R/N119S/S122Q/S92M/V174A); assay: Ligand/receptor-mediated PP2C (HAB1 phosphatase) inhibition, PYR1^PIRI; assay type: biochemical
T2 construct: made in house
T2 sequence (O49686 with tags, fused parts or gaps K59R/S92M/N119S/S122Q/E130G/F159T/A160T/V174A): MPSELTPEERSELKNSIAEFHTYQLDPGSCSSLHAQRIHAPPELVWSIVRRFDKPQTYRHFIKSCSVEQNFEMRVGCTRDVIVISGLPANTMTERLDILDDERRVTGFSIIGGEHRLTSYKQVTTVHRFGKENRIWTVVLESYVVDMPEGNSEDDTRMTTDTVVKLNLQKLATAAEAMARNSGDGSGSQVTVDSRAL

[3] = target: NLuc^N-PYR1^PIRI (Arabidopsis) (UniProt O49686)
[4] = target: NLuc^N-PYR1^DIAZI (Arabidopsis) (UniProt O49686)
[5] = target: NLuc^N-PYR1^WIN (Arabidopsis) (UniProt O49686)
[6] = target: NLuc^N-PYR1^4F (Arabidopsis) (UniProt O49686)
[7] = target: T3, ABA-PYR1M complex (Arabidopsis thaliana, UniProt O49686, H60P/N90S); assay: Yeast surface display titration of HAB1 variants against PYR1^M in the presence of 500 nM ABA; assay type: binding; details: HAB1 variant for the ABA-PYR1M complex, 95% CI in brackets, read-out: KD2
T3 construct: c-myc (display detection tag); expressed in transfected cells; host or cells: yeast (surface display of PYR1^M); the HAB1 variants were recombinant and purified
T3 sequence (O49686 1-191 H60P/N90S): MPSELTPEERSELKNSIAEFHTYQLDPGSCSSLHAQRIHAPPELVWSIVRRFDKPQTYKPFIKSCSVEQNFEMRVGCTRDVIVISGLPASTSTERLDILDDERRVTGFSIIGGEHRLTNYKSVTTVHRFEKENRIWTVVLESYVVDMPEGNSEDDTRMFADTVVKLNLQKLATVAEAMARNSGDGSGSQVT
Description: For crystallographic structures, PYL2 and ΔN-HAB1^T+ were expressed in E. coli and purified as described previously. Assays for phosphatase activity and apparent Tm, measured via thermal challenge using yeast surface display, were performed essentially as previously described.
(a) Assessment of stabilized, inactivated 6xHis -MBP-ΔN -HAB1 variants. Experiments were repeated on two separat e days using independently generated batches of protein. Error bars indicate 1 SD of 3 measure ments . Sets of mutations f or each variant are noted in Supporting File 1.
MBP-ΔN -HAB1 variants using p-NPP.
HAB1 variants using YSD of PYR1M, in the presence of 500 nM ABA and 20 nM 6xHis -MBP-ΔN -HAB1 variant. The […]
here ref ers to streptavidin -phycoerythrin.
(b) Gating strategy for analysis of data shown in part (a). The f luorescence (a.u.) reported in part (a) is the gated ΔN - HAB 1T+ binding as measured by streptavidin -phycoeryt hrin (SAPE).

T1 sequence (Q9CAJ0 179-511, one chain of several, further chain): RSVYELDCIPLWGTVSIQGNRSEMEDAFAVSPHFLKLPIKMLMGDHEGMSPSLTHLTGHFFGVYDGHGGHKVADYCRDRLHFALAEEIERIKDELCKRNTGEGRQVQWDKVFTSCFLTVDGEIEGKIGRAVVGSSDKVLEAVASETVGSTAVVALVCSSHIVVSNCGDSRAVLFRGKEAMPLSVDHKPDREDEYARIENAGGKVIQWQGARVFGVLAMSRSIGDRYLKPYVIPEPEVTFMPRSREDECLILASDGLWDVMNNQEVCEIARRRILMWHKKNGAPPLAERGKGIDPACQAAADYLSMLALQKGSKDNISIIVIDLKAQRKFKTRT

CCN(CC)c1nc(C)cc(OP(=S)(OC)OC)n1 [Pirimiphos-methyl, pirimiphos-methyl]
EC50 [1]: 19 nM
EC50 [2]: 58 nM
ligand concentrations required for activation of PYR1^PIRI above background ([2]; HAB1 inhibition and Y2H assays): low-nanomolar concentrations

NLuc^C-ΔN-HAB1 (from UniProt Q9CAJ0 179-511) (enzyme)
receptor-mediated inhibition of HAB1 phosphatase activity in vitro; EC50 of the ligand pirimiphos-methyl [3]: 58 nM
receptor-mediated inhibition of HAB1 phosphatase activity in vitro; EC50 of the ligand diazinon [4]: 36 nM
in vitro inhibition of ΔN-HAB1 phosphatase activity by recombinant 6×His-PYR1^WIN (50 nM receptor, 25 nM ΔN-HAB1, 4-methylumbelliferyl phosphate); EC50 of the ligand WIN 55,212-2 [5]: 72 nM
in vitro inhibition of ΔN-HAB1 phosphatase activity by recombinant 6×His-PYR1^4F (25 nM receptor, 25 nM ΔN-HAB1, 4-methylumbelliferyl phosphate); EC50 of the ligand 4F-MDMB-BUTINACA [6]: 102 nM

B1: T+ (723): stabilized, catalytically inactive ΔN-HAB1 derivative with 15 mutations (pJS723) (protein)
chain: RSVYELDSIPLWGTVSIQGNASEMEAAFAVVPHFLKLPIKMLMGDHEGMSPSLTHLTGHFFGVYDGHGGSKVADYCRDRLHEALAEEIERIKDELSKRNTGEGRQVQWKKVFTNCFLTVDGEIEGKIGRAVVGSSDKVLEAVASETVGSTAVVALVCSSHIVVANCGDSRAVLFRGKEAIPLSVDHKPDREDEYARIEAAGGKVIQWQGARVFGVLAMSRSIGDRYLKPYVIPEPEVTFMPRSEEDECLILASDGLWDVMSNQEVCEIARRRILMWHKKNGAPPLAERGKGIDPACQAAADYLSKLALQKGSKDNISIIVIDLKAQRKFKTRT
modifications: biotinylated in the ELISA-like assays
Kd ([7]; Biorep 1): 2.13 nM
Kd ([7]; Biorep 2): 4.76 nM
